# Data published in article PMC4376295 (Nature communications, 2014).
# Changes are numbered by the printed parent chain. Numbers in names are those of the source.
# B1: NurA D58A (nuclease inactivated) (enzyme, Sulfolobus solfataricus, UniProt Q97WH1 1-339, looked up)
# chain: MIRKIYDKLVESHNEIKNQIYNIANYLKQEIQDKVNEYWNEYVINHEQSETCKFVAIAGGSFGRPMRIGIVYAVGAESVIGDNKGVKTLSEDGQIGIFKPGNDAQERISLLMEALELSLALRDGSKGDYILMDGSLSKKIGNKVDIQQFSDEELKLIRNVDLNGIISIKDERKMRDLLMLLNQFLVSKIIEEYDGNVLWISKVSRGRDLFGTDYPDITVLELFTEKRGFSKLIIKNIDIEKISEIPEIEVLRKMEYTTFYTRLDNGKRVIRVDIVGRVDEKIVKEIMDRLSGVSIKGYPFPLLKAHMDVRFSAMDREKIIKLVGSKLHKDIEWWPSQFY
# B2: native NurA (S. solfataricus) (enzyme, Sulfolobus solfataricus, UniProt Q97WH1 1-339, looked up)
# chain: B1 chain with A58D
# How the values were obtained:
# [1] = molecular target: T1, HerA harbouring both M51L and M82L mutations (Sulfolobus solfataricus, UniProt Q97WG8 1-500, M51L | M82L); assay: SEC-coupled SAXS
# T1 sequence (looked up): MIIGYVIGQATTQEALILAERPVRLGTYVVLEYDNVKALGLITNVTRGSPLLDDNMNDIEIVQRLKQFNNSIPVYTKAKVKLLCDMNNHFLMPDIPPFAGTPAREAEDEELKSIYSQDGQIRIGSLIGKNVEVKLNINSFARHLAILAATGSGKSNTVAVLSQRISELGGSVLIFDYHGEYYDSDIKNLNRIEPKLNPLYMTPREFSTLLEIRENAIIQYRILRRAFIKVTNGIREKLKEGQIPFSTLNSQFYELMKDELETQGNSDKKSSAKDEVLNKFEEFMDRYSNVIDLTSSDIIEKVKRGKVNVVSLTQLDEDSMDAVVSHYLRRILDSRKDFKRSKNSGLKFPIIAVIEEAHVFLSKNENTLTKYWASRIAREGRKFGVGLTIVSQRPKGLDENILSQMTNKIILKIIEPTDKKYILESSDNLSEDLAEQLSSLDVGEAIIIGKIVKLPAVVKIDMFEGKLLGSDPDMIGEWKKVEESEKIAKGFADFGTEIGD
# SEC-coupled SAXS = molecular target: the molecule itself; assay: SEC-coupled SAXS
# [2] = molecular target: T2, native HerA (S. solfataricus, Sso2251) (Sulfolobus solfataricus, UniProt Q97WG8 1-500); assay: SEC
# T2 sequence (looked up): T1 sequence (looked up) with L51M, L82M
Binder,binding result [1],binding result (SEC-coupled SAXS),binding result [2]
B1,binds,binds,–
B2,–,–,binds
